Source: PMC5173319 (2016)

B1: Pyrobaculum calidifontis arcadin-2 (natural protein)
chain: MDFPKVLLIRHFTEVLGMKYAGEGGEVLWFEEGLNRVAVGIYFTDLYEEAELYKRVGALMGLGASKVFLAVLPDALAFVDPRYFKANGVGLVVVDPAKGVDGVEVKIFARARPAAVEPLKIDAVKAALHEYLASELKRVEESLFEKVRRYVDQRVEEVKRALQAVEEAKRAAPPVQRAAAESAQEPRGGIGENEWVKILRSKR

Key:
[1] = target: T1, Pyrobaculum calidifontis crenactin (Pyrobaculum calidifontis, UniProt A3MWN5 1-432); experiment: SPR; slow phase
[2] = target: T1, Pyrobaculum calidifontis crenactin; experiment: SPR; fast phase
[3] = target: T1, Pyrobaculum calidifontis crenactin; experiment: SPR; slow phase; remark: listed apart in the source
[4] = target: T1, Pyrobaculum calidifontis crenactin; experiment: SPR; fast phase; remark: listed apart in the source
[5] = target: T1, Pyrobaculum calidifontis crenactin; experiment: SPR
[6] = target: T1, Pyrobaculum calidifontis crenactin; experiment: SPR; remark: listed apart in the source

T1 sequence (A3MWN5 whole entry): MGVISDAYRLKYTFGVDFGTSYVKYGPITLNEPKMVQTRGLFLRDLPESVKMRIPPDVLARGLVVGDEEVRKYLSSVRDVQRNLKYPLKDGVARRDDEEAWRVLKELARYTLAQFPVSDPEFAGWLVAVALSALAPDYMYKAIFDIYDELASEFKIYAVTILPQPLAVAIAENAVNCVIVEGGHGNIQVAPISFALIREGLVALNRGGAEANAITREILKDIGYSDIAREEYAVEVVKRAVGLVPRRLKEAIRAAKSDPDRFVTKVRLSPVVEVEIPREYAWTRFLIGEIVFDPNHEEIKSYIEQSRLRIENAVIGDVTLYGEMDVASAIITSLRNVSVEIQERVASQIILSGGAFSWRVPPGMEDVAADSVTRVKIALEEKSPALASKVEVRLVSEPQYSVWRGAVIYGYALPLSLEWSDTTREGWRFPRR

Binder | Kd [1] | koff [2] | koff [3] | Kd [4] | Kd [5] | koff [6]
B1 | 59 nM | 0.019 s⁻¹ | 0.0034 s⁻¹ | 24 nM | – | –
RGGIGENEWVKILRSKR [arcadin-2 C-terminal peptide (residues 187-203)] | – | – | – | – | 9 nM | 0.019 s⁻¹
